US20150344583A1

Biological target: human BCMA (huBCMA) on cells (human) (UniProt Q02223)
Test: FACS, H929 cells, negative control

Sequence of human BCMA (huBCMA) on cells (human) (Q02223 whole entry N81S): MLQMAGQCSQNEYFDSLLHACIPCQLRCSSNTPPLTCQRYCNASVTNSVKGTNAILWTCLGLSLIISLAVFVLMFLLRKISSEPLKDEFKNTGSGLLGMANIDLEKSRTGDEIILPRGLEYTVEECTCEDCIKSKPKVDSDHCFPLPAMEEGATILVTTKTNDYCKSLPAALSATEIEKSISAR

MFI: 8 MFI
Substance: hu IgG1 (antibody)
